Literature values, collected in paper PMC11084152, “Galf-Specific Neolectins: Towards Promising Diagnostic Tools” (International Journal of Molecular Sciences, 2024).

Design: method as in PMID 26148048
Conditions: β-D-Galf-substituted surface; read-out: functional affinity value

B1: hIntL-1: human intelectin-1, galactofuranosyl-binding lectin used as positive control (protein, UniProt Q8WWA0 19-298, looked up)
Intelectin-1: TDEANTYFKEWTCSSSPSLPRSCKEIKDECPSAFDGLYFLRTENGVIYQTFCDMTSGGGGWTLVASVHENDMRGKCTVGDRWSSQQGSKAVYPEGDGNWANYNTFGSAEAATSDDYKNPGYYDIQAKDLGIWHVPNKSPMQHWRNSSLLRYRTDTGFLQTLGHNLFGIYQKYPVKYGEGKCWTDNGPVIPVVYDFGDAQKTASYYSPYGQREFTAGFVQFRVFNNERAANALCAGMRVTGCNTEHHCIGGGGYFPEASPQQCGDFSGFDWSGYGTHVGYS
In the case of B1, the Kd is listed as 85 ± 14 nM.
